Assay results published in the supplement of paper PMC7877785.
± gives the uncertainty stated by the source.

Assay: self-splicing fitness, log relative to wild type (ln ratio); higher = more splicing; Tetrahymena group I intron in knt gene, E. coli kanamycin selection, DiMSum; sequences stand for … in CUCUCU…GGAGGGAAAAGUUAUCAGGCAUGCACCUGGUAGCUAGUCUUUAAACCAAUAGAUUGCAUCGGUUUAAAAGGCAAGACCGUCAAAUUGCGGGAAAGGGGUCAACAGCCGUUCAGUACCAAGUCUCAGGGGAAACUUUGAGAUGGCCUUGCAAAGGGUAUGGUAAUAAGCUGACGGACAUGGUCCUAACCACGCAGCCAAGUCCUAAGUCAACAGAUCUUCUGUUGAUAUGGAUGCAGUUCACAGACUAAAUGUCGGUCGGGGAAGAUGUAUUCUUCUCAUAAGAUAUAGUCGGACCUCUCCUUAAUGGGAGCUAGCGGAUGAAGUGAUGCAACACUGGAGCCGCUGGGAACUAAUUUGUAUGCGAAAGUAUAUUGAUUAGUUUUGGAGUACUCGUGGUCG
Summary of the method: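 Fitness was computed with DiMSum as the error-weighted combination of replicate fold changes, kanamycin versus none, each normalised to wild type. The library randomised all eight intron nucleotides of the P1ex region, with the intron placed in the knt kanamycin-resistance gene on pET-22b(+) in E. coli BL21(DE3). Six replicate transformations were grown overnight at 37°C or 30°C on LB agar with or without 25 μg/mL kanamycin, plus 100 μg/mL carbenicillin, 50 μM IPTG and 0.2% rhamnose. Pooled colonies were amplicon-sequenced on an Illumina HiSeq 2500.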

Sequence	self-splicing fitness (ln) (30 °C)	self-splicing fitness (ln) (37 °C)
GGAAAGCAAUAUUACGCUAC	-1.91 ± 0.26	-1.86 ± 0.33
AUUCAGCAAUAUUACGGCGA	-0.392 ± 0.078	-0.501 ± 0.084
GCUCAGCAAUAUUACGGCAG	-2.91 ± 0.22	-2.82 ± 0.38
GAUGAGCAAUAUUACGUGGA	-2.47 ± 0.21	-2.5 ± 0.22
CGUAAGCAAUAUUACGGAGU	-3.13 ± 0.17	-2.89 ± 0.19
CCUUAGCAAUAUUACGAGCG	-1.02 ± 0.077	-0.792 ± 0.095
UGAAAGCAAUAUUACGUCAG	-1.78 ± 0.13	-0.368 ± 0.13
AAUUAGCAAUAUUACGACUC	-0.246 ± 0.11	0.0749 ± 0.16
UAGAAGCAAUAUUACGGCCA	-0.205 ± 0.077	-0.611 ± 0.081
ACCGAGCAAUAUUACGGUAA	-2.6 ± 0.18	-1.7 ± 0.12
AACGAGCAAUAUUACGACAG		-2.37 ± 0.28
CCUGAGCAAUAUUACGAGAC	-2.85 ± 0.33	-0.69 ± 0.33
GUGAAGCAAUAUUACGGGUG	-1.39 ± 0.075	-0.589 ± 0.11
UGAAAGCAAUAUUACGAAAG	-2.61 ± 0.15	-0.866 ± 0.16
ACCUAGCAAUAUUACGCACU	-0.127 ± 0.085	0.3 ± 0.12
GCUUAGCAAUAUUACGCCUU	-2.7 ± 0.21	0.179 ± 0.19
AGAGAGCAAUAUUACGAGUA		-2.01 ± 0.45
CGACAGCAAUAUUACGUUUU	-3.62 ± 0.15	-1.54 ± 0.11
AGGUAGCAAUAUUACGUGAC	-2.734 ± 0.023	-1.69 ± 0.037
UCUUAGCAAUAUUACGUUAC		-2.83 ± 0.31
CAGGAGCAAUAUUACGCAAU		-1.35 ± 0.27
GAACAGCAAUAUUACGUUUC	-4.43 ± 0.14	-2.53 ± 0.14
AGGAAGCAAUAUUACGUAUA	-1.79 ± 0.17	-2.16 ± 0.24
CGGAAGCAAUAUUACGCUUG		-2.42 ± 0.27
GAUUAGCAAUAUUACGGCUC	0.285 ± 0.096	0.441 ± 0.12

Sequence	self-splicing fitness (ln) (30 °C)	self-splicing fitness (ln) (37 °C)
ACAUAGCAAUAUUACGCUCA	-0.539 ± 0.11	-0.358 ± 0.12
AACUAGCAAUAUUACGGCGC	-0.8 ± 0.13	-0.34 ± 0.16
UGUUAGCAAUAUUACGUCUC	-4.05 ± 0.42	-2.07 ± 0.31
AGAGAGCAAUAUUACGUGGA	-3.15 ± 0.4	-2.3 ± 0.5
CACUAGCAAUAUUACGCUCG	-0.657 ± 0.073	0.214 ± 0.089
GUUCAGCAAUAUUACGAGGU	-2.25 ± 0.12	-0.472 ± 0.13
GCUGAGCAAUAUUACGCGGC		-1.22 ± 0.41
GGUGAGCAAUAUUACGAUAC	-2.03 ± 0.16	-0.811 ± 0.15
CGUUAGCAAUAUUACGUCCG	-0.128 ± 0.18	-0.407 ± 0.2
AUAAAGCAAUAUUACGGACC	-0.681 ± 0.16	-0.941 ± 0.24
AAGCAGCAAUAUUACGCGAC	-0.688 ± 0.22	-1.95 ± 0.25
UAACAGCAAUAUUACGCGCA	-0.471 ± 0.078	0.0314 ± 0.12
GAACAGCAAUAUUACGCCAC	-3.15 ± 0.22	
UAUUAGCAAUAUUACGGGGU		-1.52 ± 0.38
CCAAAGCAAUAUUACGCUGC	-3.03 ± 0.17	-1.8 ± 0.18
AGACAGCAAUAUUACGUAGG	-2.6 ± 0.11	-1.28 ± 0.11
AUCCAGCAAUAUUACGAGUG	-1.66 ± 0.095	-1.77 ± 0.11
GAAGAGCAAUAUUACGCCGU	-2.88 ± 0.44	-2.96 ± 0.43
AACCAGCAAUAUUACGCCAA	-2.55 ± 0.14	-1.67 ± 0.16
GCCCAGCAAUAUUACGCCAG	-1.92 ± 0.13	-2.32 ± 0.23
AAAGAGCAAUAUUACGAAAC	-3.23 ± 0.44	-2.67 ± 0.48
CGCGAGCAAUAUUACGACAC	-3.42 ± 0.49	-1.36 ± 0.41
ACUUAGCAAUAUUACGUAAA	-2.37 ± 0.2	-0.419 ± 0.2
UCUGAGCAAUAUUACGGGGC	-3.3 ± 0.32	-2.7 ± 0.36
CUCAAGCAAUAUUACGGUCU	-3.13 ± 0.16	-3.56 ± 0.39
